Experiments:
SMYD2-F184A (human) [1] = molecular target: SMYD2-F184A (human) (UniProt Q9NRG4); experiment: ITC; NanoITC SV, 27°C, 25 mM Tris pH 7.5, 50 mM NaCl; 40 μM SMYD2 in the cell, 631 μM PARP1 peptide in the syringe, 16 injections of 15 μL; one-site, two-site and binding polynomial models
SMYD2-F184A (human) [2] = molecular target: SMYD2-F184A (human) (UniProt Q9NRG4); experiment: ELISA; inhibition: SMYD2 proteins pre-incubated with varying concentrations of the PARP1 peptide, then added to wells coated with PARP1(518-1014), H3 or H4; four-parameter logistic fit

Chain of SMYD2-F184A (human) (Q9NRG4 whole entry F184A): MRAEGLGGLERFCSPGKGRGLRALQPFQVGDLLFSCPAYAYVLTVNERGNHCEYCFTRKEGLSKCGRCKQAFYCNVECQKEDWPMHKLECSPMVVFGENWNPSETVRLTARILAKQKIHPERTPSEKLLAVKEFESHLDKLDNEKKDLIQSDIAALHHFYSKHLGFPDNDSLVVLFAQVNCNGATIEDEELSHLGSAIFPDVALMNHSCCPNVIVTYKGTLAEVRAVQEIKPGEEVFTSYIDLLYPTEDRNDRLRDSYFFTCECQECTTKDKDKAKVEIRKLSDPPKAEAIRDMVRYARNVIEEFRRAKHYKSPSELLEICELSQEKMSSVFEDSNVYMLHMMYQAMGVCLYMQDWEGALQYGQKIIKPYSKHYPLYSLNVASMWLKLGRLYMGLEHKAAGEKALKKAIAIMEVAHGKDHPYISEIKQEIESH

## PARP1 peptide (13-residue synthetic peptide, human PARP1 residues 522-534)
SMYD2-F184A (human) [1]
  stoichiometry N: 1
SMYD2-F184A (human) [2]
  IC50: 153 nM

Reference: publication doi:10.1101/2024.12.03.626679, “Structure of the SMYD2-PARP1 Complex Reveals Both Productive and Allosteric Modes of Peptide Binding” (bioRxiv, 2024)
